Reference: article doi:10.64898/2025.12.02.691841

Molecular target: His5-MttP (MM_1691), DME family transporter of Methanosarcina mazei (Methanosarcina mazei)
Test: SEC

| Substance | stoichiometry N |
| --- | --- |
| MttQ (MM_1692), small protein of Methanosarcina mazei (natural protein) | 1 |
| MttS (sORF05), small protein of Methanosarcina mazei (natural protein) | 1 |
